Data published in article PMC4868535, “A G-protein activation cascade from Arl13B to Arl3 and implications for ciliary targeting of lipidated proteins” (eLife, 2015).

What was measured:
[1] = biological target: T1, CrArl13B 18-278 (Chlamydomonas reinhardtii, UniProt A8INQ0); experiment: nucleotide loading (HPLC) and GEF activity of the loaded protein; assay type: binding; details: 5 mM MgCl2, pH 7.5, 20°C
T1 construct: gene ARL13; residues 18-278 (G-domain plus C-terminal helix), expressed in E. coli as GST fusion
T1 sequence (A8INQ0 18-278): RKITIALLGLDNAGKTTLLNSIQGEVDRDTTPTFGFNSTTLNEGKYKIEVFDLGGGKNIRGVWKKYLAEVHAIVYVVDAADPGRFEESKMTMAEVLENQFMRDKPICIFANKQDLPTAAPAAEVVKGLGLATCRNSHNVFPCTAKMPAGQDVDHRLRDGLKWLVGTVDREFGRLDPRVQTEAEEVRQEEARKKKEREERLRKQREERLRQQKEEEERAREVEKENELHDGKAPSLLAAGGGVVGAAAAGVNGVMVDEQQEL

[2] = biological target: T2, CrArl13B-CrArl3 complex (CrArl13B nucleotide site) (Chlamydomonas reinhardtii, UniProt A8INQ0); experiment: X-ray crystal structure […] Å; assay type: binding; details: Mg2+; nucleotide site of CrArl13B
T2 construct: gene ARL13; crystal complex, one in asymmetric unit; last 58 residues of CrArl13B not visible; from E. coli; with ADP-ribosylation factor-like protein 3
T2 sequence (A8INQ0 18-278): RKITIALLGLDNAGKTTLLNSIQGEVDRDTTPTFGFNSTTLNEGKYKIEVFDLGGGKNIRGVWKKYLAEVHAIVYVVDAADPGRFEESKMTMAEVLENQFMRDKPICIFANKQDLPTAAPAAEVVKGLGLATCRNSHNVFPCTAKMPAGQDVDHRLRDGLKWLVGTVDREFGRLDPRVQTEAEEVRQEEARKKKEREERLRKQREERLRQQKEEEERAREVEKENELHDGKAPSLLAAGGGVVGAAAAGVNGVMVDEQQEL
T2 sequence (A8ISN6 2-177 partner): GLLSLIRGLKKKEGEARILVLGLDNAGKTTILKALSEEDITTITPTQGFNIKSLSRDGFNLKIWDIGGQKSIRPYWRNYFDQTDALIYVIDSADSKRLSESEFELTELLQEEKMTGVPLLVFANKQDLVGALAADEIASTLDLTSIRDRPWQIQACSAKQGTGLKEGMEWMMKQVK

[3] = biological target: T3, CrArl13B-CrArl3 complex (CrArl3 nucleotide site) (Chlamydomonas reinhardtii, UniProt A8ISN6); experiment: X-ray crystal structure […] Å; assay type: binding; details: Mg2+; nucleotide site of CrArl3; post-nucleotide-exchange state
T3 construct: gene ARL3; crystal complex, one in asymmetric unit; last 58 residues of CrArl13B not visible; from E. coli; with ADP-ribosylation factor-like protein 13B
T3 sequence (A8ISN6 2-177 limits assumed): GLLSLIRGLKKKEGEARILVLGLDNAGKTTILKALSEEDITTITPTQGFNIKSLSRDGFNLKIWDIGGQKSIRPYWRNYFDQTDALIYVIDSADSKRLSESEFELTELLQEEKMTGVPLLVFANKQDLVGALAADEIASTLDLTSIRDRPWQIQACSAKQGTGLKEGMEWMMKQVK
T3 sequence (A8INQ0 18-278 partner): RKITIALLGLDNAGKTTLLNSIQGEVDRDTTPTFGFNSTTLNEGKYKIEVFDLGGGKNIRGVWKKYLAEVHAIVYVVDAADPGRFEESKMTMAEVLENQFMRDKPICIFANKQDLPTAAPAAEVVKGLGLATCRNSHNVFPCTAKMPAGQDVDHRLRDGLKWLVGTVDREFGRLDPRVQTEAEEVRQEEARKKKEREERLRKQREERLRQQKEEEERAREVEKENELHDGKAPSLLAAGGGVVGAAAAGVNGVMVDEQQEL

[4] = biological target: CrArl3 D146R (Chlamydomonas reinhardtii)
[5] = biological target: CrArl3 D103R (Chlamydomonas reinhardtii)
[6] = biological target: CrArl3 (Chlamydomonas reinhardtii)
[7] = biological target: CrArl3 (Chlamydomonas reinhardtii); remark: listed apart in the source
[8] = biological target: CrArl3 (Chlamydomonas reinhardtii); remark: listed apart in the source

Nc1nc2c(ncn2[C@@H]2O[C@H](COP(=O)(O)OP(=O)(O)O)[C@@H](O)[C@H]2O)c(=O)[nH]1 [GDP]
nucleotide loading (HPLC) and GEF activity of the loaded protein ([1]; GDP-bound state compared by GEF activity on CrArl3·mantGDP): CrArl13B preloaded with GDP, GTP, or GppNHp was used to analyze the exchange activity

Nc1nc2c(ncn2[C@@H]2O[C@H](COP(=O)(O)OP(=O)(O)OP(=O)(O)O)[C@@H](O)[C@H]2O)c(=O)[nH]1 [GTP]
nucleotide loading (HPLC) and GEF activity of the loaded protein ([1]; GTP-bound state compared by GEF activity on CrArl3·mantGDP): CrArl13B preloaded with GDP, GTP, or GppNHp was used to analyze the exchange activity

Nc1nc2c(ncn2[C@@H]2O[C@H](COP(=O)(O)OP(=O)(O)NP(=O)(O)O)[C@@H](O)[C@H]2O)c(=O)[nH]1 [GppNHp]
X-ray crystal structure 2.5 Å [2]: GppNHp was clearly visible in both active sites
X-ray crystal structure 2.5 Å [3]: GppNHp was clearly visible in both active sites

B1: CrArl13B^18-–278 (domain or fragment)
chain: RKITIALLGLDNAGKTTLLNSIQGEVDRDTTPTFGFNSTTLNEGKYKIEVFDLGGGKNIRGVWKKYLAEVHAIVYVVDAADPGRFEESKMTMAEVLENQFMRDKPICIFANKQDLPTAAPAAEVVKGLGLATCRNSHNVFPCTAKMPAGQDVDHRLRDGLKWLVGTVDREFGRLDPRVQTEAEEVRQEEARKKKEREERLRKQREERLRQQKEEEERAREVEKENELHDGKAPSLLAAGGGVVGAAAAGVNGVMVDEQQEL
Kobs of nucleotide release from CrArl3 D146R·mantGppNHp with 5 µM CrArl13B wt (GEF assay) [4]: 0.00014 s⁻¹
Kobs of nucleotide release from CrArl3 D103R·mantGppNHp with 5 µM CrArl13B wt (GEF assay) [5]: 0.00014 s⁻¹
Kobs of nucleotide release from 500 nM CrArl3·mantGppNHp with 5 µM CrArl13B wt (GEF assay, switch interface mutants) [6]: 0.0091 s⁻¹
Kobs of nucleotide release from CrArl3 wt with 5 µM CrArl13B 18-278 (GEF assay, deletion constructs) [6]: 0.0066 s⁻¹
Kobs of nucleotide release from CrArl3 wt·mantGppNHp with 5 µM CrArl13B wt (GEF assay, charge reversal interface mutants) [6]: 0.0085 s⁻¹
Kobs of mantGDP release from 500 nM CrArl3 with 5 µM CrArl13B·GDP (GEF assay) [7]: 0.0009 s⁻¹
Kobs of mantGDP release from 500 nM CrArl3 with 5 µM CrArl13B·GTP (GEF assay) [7]: 0.006 s⁻¹
Kobs of mantGDP release from 500 nM CrArl3 with 5 µM CrArl13B·GppNHp (GEF assay) [7]: 0.0078 s⁻¹
KM of the GEF reaction (kobs of mantGDP release from 500 nM CrArl3 against GEF concentration) for CrArl13B·GDP [8]: 155 µM
KM of the GEF reaction (kobs of mantGDP release from 500 nM CrArl3 against GEF concentration) for CrArl13B·GTP [8]: 1.1 µM

B2: CrArl13B N75A (18-278) (domain or fragment)
chain: RKITIALLGLDNAGKTTLLNSIQGEVDRDTTPTFGFNSTTLNEGKYKIEVFDLGGGKAIRGVWKKYLAEVHAIVYVVDAADPGRFEESKMTMAEVLENQFMRDKPICIFANKQDLPTAAPAAEVVKGLGLATCRNSHNVFPCTAKMPAGQDVDHRLRDGLKWLVGTVDREFGRLDPRVQTEAEEVRQEEARKKKEREERLRKQREERLRQQKEEEERAREVEKENELHDGKAPSLLAAGGGVVGAAAAGVNGVMVDEQQEL
Kobs of nucleotide release from 500 nM CrArl3·mantGppNHp with 5 µM CrArl13B N75A (GEF assay) [6]: 0.0044 s⁻¹

B3: CrArl13B^F53A (18-278) (domain or fragment)
chain: RKITIALLGLDNAGKTTLLNSIQGEVDRDTTPTFGANSTTLNEGKYKIEVFDLGGGKNIRGVWKKYLAEVHAIVYVVDAADPGRFEESKMTMAEVLENQFMRDKPICIFANKQDLPTAAPAAEVVKGLGLATCRNSHNVFPCTAKMPAGQDVDHRLRDGLKWLVGTVDREFGRLDPRVQTEAEEVRQEEARKKKEREERLRKQREERLRQQKEEEERAREVEKENELHDGKAPSLLAAGGGVVGAAAAGVNGVMVDEQQEL
Kobs of nucleotide release from 500 nM CrArl3·mantGppNHp with 5 µM CrArl13B F53A (GEF assay) [6]: 0.00042 s⁻¹

B4: CrArl13B Y83A (18-278) (domain or fragment)
chain: RKITIALLGLDNAGKTTLLNSIQGEVDRDTTPTFGFNSTTLNEGKYKIEVFDLGGGKNIRGVWKKALAEVHAIVYVVDAADPGRFEESKMTMAEVLENQFMRDKPICIFANKQDLPTAAPAAEVVKGLGLATCRNSHNVFPCTAKMPAGQDVDHRLRDGLKWLVGTVDREFGRLDPRVQTEAEEVRQEEARKKKEREERLRKQREERLRQQKEEEERAREVEKENELHDGKAPSLLAAGGGVVGAAAAGVNGVMVDEQQEL
Kobs of nucleotide release from 500 nM CrArl3·mantGppNHp with 5 µM CrArl13B Y83A (GEF assay) [6]: 0.0009 s⁻¹

B5: CrArl13B F51A (18-278) (domain or fragment)
chain: RKITIALLGLDNAGKTTLLNSIQGEVDRDTTPTAGFNSTTLNEGKYKIEVFDLGGGKNIRGVWKKYLAEVHAIVYVVDAADPGRFEESKMTMAEVLENQFMRDKPICIFANKQDLPTAAPAAEVVKGLGLATCRNSHNVFPCTAKMPAGQDVDHRLRDGLKWLVGTVDREFGRLDPRVQTEAEEVRQEEARKKKEREERLRKQREERLRQQKEEEERAREVEKENELHDGKAPSLLAAGGGVVGAAAAGVNGVMVDEQQEL
Kobs of nucleotide release from 500 nM CrArl3·mantGppNHp with 5 µM CrArl13B F51A (GEF assay) [6]: 0.002 s⁻¹

B6: CrArl13B H154W (18-278) (domain or fragment)
chain: RKITIALLGLDNAGKTTLLNSIQGEVDRDTTPTFGFNSTTLNEGKYKIEVFDLGGGKNIRGVWKKYLAEVHAIVYVVDAADPGRFEESKMTMAEVLENQFMRDKPICIFANKQDLPTAAPAAEVVKGLGLATCRNSWNVFPCTAKMPAGQDVDHRLRDGLKWLVGTVDREFGRLDPRVQTEAEEVRQEEARKKKEREERLRKQREERLRQQKEEEERAREVEKENELHDGKAPSLLAAGGGVVGAAAAGVNGVMVDEQQEL
Kobs of nucleotide release from CrArl3 wt·mantGppNHp with 5 µM CrArl13B H154W (GEF assay) [6]: 0.0088 s⁻¹

B7: CrArl13B D46A (18-278) (domain or fragment)
chain: RKITIALLGLDNAGKTTLLNSIQGEVDRATTPTFGFNSTTLNEGKYKIEVFDLGGGKNIRGVWKKYLAEVHAIVYVVDAADPGRFEESKMTMAEVLENQFMRDKPICIFANKQDLPTAAPAAEVVKGLGLATCRNSHNVFPCTAKMPAGQDVDHRLRDGLKWLVGTVDREFGRLDPRVQTEAEEVRQEEARKKKEREERLRKQREERLRQQKEEEERAREVEKENELHDGKAPSLLAAGGGVVGAAAAGVNGVMVDEQQEL
Kobs of nucleotide release from 500 nM CrArl3·mantGppNHp with 5 µM CrArl13B D46A (GEF assay) [6]: 0.0041 s⁻¹

B8: CrArl13B △233 (18–232) (domain or fragment)
chain: RKITIALLGLDNAGKTTLLNSIQGEVDRDTTPTFGFNSTTLNEGKYKIEVFDLGGGKNIRGVWKKYLAEVHAIVYVVDAADPGRFEESKMTMAEVLENQFMRDKPICIFANKQDLPTAAPAAEVVKGLGLATCRNSHNVFPCTAKMPAGQDVDHRLRDGLKWLVGTVDREFGRLDPRVQTEAEEVRQEEARKKKEREERLRKQREERLRQQKEEE
Kobs of nucleotide release from CrArl3 wt with 5 µM CrArl13B △233 (GEF assay, deletion constructs) [6]: 0.005 s⁻¹

B9: CrArl13B △220 (18–219) (domain or fragment)
chain: RKITIALLGLDNAGKTTLLNSIQGEVDRDTTPTFGFNSTTLNEGKYKIEVFDLGGGKNIRGVWKKYLAEVHAIVYVVDAADPGRFEESKMTMAEVLENQFMRDKPICIFANKQDLPTAAPAAEVVKGLGLATCRNSHNVFPCTAKMPAGQDVDHRLRDGLKWLVGTVDREFGRLDPRVQTEAEEVRQEEARKKKEREERLRK
Kobs of nucleotide release from CrArl3 wt with 5 µM CrArl13B △220 (GEF assay, deletion constructs) [6]: 0.0011 s⁻¹

B10: CrArl13B △213 (18–212) (domain or fragment)
chain: RKITIALLGLDNAGKTTLLNSIQGEVDRDTTPTFGFNSTTLNEGKYKIEVFDLGGGKNIRGVWKKYLAEVHAIVYVVDAADPGRFEESKMTMAEVLENQFMRDKPICIFANKQDLPTAAPAAEVVKGLGLATCRNSHNVFPCTAKMPAGQDVDHRLRDGLKWLVGTVDREFGRLDPRVQTEAEEVRQEEARKKKE
Kobs of nucleotide release from CrArl3 wt with 5 µM CrArl13B △213 (GEF assay, deletion constructs) [6]: 0.0001 s⁻¹

B11: CrArl13B △203 (18–202) (domain or fragment)
chain: RKITIALLGLDNAGKTTLLNSIQGEVDRDTTPTFGFNSTTLNEGKYKIEVFDLGGGKNIRGVWKKYLAEVHAIVYVVDAADPGRFEESKMTMAEVLENQFMRDKPICIFANKQDLPTAAPAAEVVKGLGLATCRNSHNVFPCTAKMPAGQDVDHRLRDGLKWLVGTVDREFGRLDPRVQTEAEEV
Kobs of nucleotide release from CrArl3 wt with 5 µM CrArl13B △203 (GEF assay, deletion constructs) [6]: 0.0001 s⁻¹

B12: CrArl13B △243 (18–242) (domain or fragment)
chain: RKITIALLGLDNAGKTTLLNSIQGEVDRDTTPTFGFNSTTLNEGKYKIEVFDLGGGKNIRGVWKKYLAEVHAIVYVVDAADPGRFEESKMTMAEVLENQFMRDKPICIFANKQDLPTAAPAAEVVKGLGLATCRNSHNVFPCTAKMPAGQDVDHRLRDGLKWLVGTVDREFGRLDPRVQTEAEEVRQEEARKKKEREERLRKQREERLRQQKEEEERAREVEKEN
Kobs of nucleotide release from CrArl3 wt with 5 µM CrArl13B △243 (GEF assay, deletion constructs) [6]: 0.0045 s⁻¹
